What was measured:
[1] = target: purified bovine cathepsin C (bovine)
[2] = target: purified bovine cathepsin B (bovine)
purified papain = target: T1, purified papain (UniProt P00784)
T1 sequence: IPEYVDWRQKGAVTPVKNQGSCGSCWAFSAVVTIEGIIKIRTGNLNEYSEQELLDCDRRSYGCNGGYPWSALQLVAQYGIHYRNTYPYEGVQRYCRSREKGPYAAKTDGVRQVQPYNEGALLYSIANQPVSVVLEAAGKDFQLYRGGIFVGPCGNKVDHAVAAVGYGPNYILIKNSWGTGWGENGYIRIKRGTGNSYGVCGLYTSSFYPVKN

[3] = target: T2, purified human cathepsin H (human)
T2 sequence (P09668 116-335, looked up): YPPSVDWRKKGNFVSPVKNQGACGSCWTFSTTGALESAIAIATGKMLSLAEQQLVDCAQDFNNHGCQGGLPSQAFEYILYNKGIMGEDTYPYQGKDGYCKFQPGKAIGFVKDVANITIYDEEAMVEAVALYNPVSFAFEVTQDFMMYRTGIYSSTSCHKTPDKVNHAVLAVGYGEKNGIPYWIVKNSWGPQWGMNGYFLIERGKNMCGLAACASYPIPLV

[4] = target: recombinant human cathepsin L (human) (UniProt P07711)
[5] = target: recombinant human cathepsin S (human) (UniProt P25774)
[6] = target: sialostatin L (Ixodes scapularis) (UniProt Q8MVB6); test: crystal structure

purified chicken egg white cystatin, sequence (P01038 24-139): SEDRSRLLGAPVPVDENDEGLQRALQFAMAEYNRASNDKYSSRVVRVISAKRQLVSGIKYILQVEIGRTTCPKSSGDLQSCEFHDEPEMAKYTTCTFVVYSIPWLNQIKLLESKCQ
purified bovine cathepsin C (bovine), sequence (Q3ZCJ8 25-463): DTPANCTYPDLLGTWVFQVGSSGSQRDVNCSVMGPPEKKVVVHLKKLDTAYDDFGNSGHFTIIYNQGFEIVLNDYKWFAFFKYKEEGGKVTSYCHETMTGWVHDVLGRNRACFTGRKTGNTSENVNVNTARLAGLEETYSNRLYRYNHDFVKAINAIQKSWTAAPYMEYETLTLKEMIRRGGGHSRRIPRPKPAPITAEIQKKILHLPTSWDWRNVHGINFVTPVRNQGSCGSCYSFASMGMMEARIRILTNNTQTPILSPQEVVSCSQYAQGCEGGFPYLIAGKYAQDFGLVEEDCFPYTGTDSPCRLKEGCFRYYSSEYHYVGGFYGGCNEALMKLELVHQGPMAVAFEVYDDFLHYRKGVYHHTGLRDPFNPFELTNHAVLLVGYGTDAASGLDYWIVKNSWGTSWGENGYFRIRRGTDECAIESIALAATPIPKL
recombinant human cathepsin L (human), sequence (P07711 18-333): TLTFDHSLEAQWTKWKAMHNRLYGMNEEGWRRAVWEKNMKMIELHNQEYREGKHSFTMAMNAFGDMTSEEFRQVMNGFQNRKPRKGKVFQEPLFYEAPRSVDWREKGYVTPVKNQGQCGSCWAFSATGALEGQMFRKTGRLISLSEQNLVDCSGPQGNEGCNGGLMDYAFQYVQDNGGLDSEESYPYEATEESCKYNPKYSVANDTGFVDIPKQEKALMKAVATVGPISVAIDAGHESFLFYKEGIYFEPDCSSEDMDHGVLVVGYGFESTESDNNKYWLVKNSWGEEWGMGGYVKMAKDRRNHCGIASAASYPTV
recombinant human cathepsin S (human), sequence (P25774 17-331): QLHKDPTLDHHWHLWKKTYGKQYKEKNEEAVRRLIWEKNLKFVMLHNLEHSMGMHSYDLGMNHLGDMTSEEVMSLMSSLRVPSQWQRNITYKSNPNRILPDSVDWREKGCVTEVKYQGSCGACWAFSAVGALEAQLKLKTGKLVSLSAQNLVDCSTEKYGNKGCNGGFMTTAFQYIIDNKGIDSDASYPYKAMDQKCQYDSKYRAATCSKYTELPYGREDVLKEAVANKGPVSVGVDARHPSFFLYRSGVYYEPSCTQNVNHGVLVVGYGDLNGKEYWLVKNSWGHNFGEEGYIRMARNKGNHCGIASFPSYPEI

| IC50 of inhibition of enzyme activity (fluorogenic substrate) [1] | IC50 of inhibition of enzyme activity (fluorogenic substrate) [2] | IC50 of inhibition of enzyme activity (fluorogenic substrate) (purified papain) | IC50 of inhibition of enzyme activity (fluorogenic substrate) [3] | IC50 of inhibition of enzyme activity (fluorogenic substrate) [4] | IC50 of inhibition of enzyme activity (fluorogenic substrate) [5] | Substance | stoichiometry N [6] |
| --- | --- | --- | --- | --- | --- | --- | --- |
| 3.1 nM | 800 nM | 4.4 nM | 39 nM | 2.9 nM | 3.2 nM | purified chicken egg white cystatin (from UniProt P01038 24-139) (natural protein) |  |
|  |  |  |  |  |  | sialostatin L (from UniProt Q8MVB6 20-133) (natural protein) | 2 |

— paper PMC2909360
